Test results as given in publication PMC9239242 (mBio, 2022).

Experiments:
[1] = target: T1, E. coli RNA polymerase holoenzyme (native) (E. coli, UniProt P0A8V2 1-1342; P0A8T7 1-1407; P00579 1-613; P0A7Z4 1-329; P0A800 1-91); test: cell-based or functional assay
[2] = target: T1, E. coli RNA polymerase holoenzyme …; settings: both partners purified

Binder | IC50 for inhibition of rrnB P1 transcription, multiround in vitro transcription with E. coli RNAP (4 nM to 2,000 nM factor) [1] [nM] | IC50 [2] [nM]
λ Orf73 (Orf73 from bacteriophage lambda) (natural protein) ADIIDSASEIEELQRNTAIKMRRLNHQAISATHCCECGDPIDERRRLVVQGCRTCASCQEDLELISKQRGSK | ~50 | 
VP882 Orf61 (Orf61 from Vibrio phage VP882) (natural protein) SDIADQAQDVIEQHLTASLANRKHNINPAIPSAKHCDDCESEIPEARRRSLPGVRLCVDCASLQEIKGRHQR | 270 | 1700
VHML Orf8 (Orf8 from Vibrio phage VHML) (natural protein) MTDCSADPLDRAAALSQAHLEVSLSRIKKFEGVSAHECVECGSEIPKKRRELLQGVTDCVDCAAIKETLSKNYMR | 800 | 3000
